Results published in US20210145976A1.

The binders below were run against human serum albumin (human) (UniProt P02768) (assay: screening ELISA).
human serum albumin (human), sequence (P02768 25-609 limits assumed): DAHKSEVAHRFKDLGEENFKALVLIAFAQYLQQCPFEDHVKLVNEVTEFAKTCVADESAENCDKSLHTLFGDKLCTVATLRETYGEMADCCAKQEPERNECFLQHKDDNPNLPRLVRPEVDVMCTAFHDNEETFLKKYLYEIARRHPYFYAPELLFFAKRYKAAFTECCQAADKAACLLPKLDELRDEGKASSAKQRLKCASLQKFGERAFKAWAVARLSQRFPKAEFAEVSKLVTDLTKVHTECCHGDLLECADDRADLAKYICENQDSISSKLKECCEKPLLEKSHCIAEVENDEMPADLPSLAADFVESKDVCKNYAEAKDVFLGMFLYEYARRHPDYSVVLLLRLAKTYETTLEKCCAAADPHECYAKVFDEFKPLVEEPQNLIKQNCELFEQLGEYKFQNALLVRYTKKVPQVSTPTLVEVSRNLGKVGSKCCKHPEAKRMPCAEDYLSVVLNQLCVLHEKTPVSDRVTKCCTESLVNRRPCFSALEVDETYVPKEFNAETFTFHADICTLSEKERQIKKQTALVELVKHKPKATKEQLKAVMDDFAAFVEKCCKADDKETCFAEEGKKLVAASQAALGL

| Binder | HSA |
| --- | --- |
| SEQ ID NO 252 (designed binder) MLPAPKNLVVSRVTEDSARLSWTAPDAAFDSFDIGYTEYGGYGEAIVLTVPGSERSYDLTGLKPGTEYWVLIQGVKGGGSSVPLSAIFTT | 2500 |
| SEQ ID NO 255 (designed binder) MLPAPKNLVVSRVTEDSARLSWTAPDAAFDSFDIEYYELIGRGEAIVLTVPGSERSYDLTGLKPGTEYWVGIYGVKGGWLSRPLSAIFTT | 4550 |
| SEQ ID NO 51 (designed binder) MLPAPKNLVVSRVTEDSARLSWTAPDAAFDSFFIKYIEWWADGEAIVLTVPGSERSYDLTGLKPGTEYLVEIYGVKGGKWSWPLSAIFTT | 4240 |
| SEQ ID NO 52 (designed binder) MLPAPKNLVVSRVTEDSARLSWTAPDAAFDSFKISYQEWWEDGEAIVLTVPGSERSYDLTGLKPGTEYWVNISGVKGGVQSYPLSAIFTT | 1760 |
| SEQ ID NO 53 (designed binder) MLPAPKNLVVSRVTEDSARLSWTAPDAAFDSFFISYIEWWDLGEAIVLTVPGSERSYDLTGLKPGTEYHVEIFGVKGGTQSYPLSAIFTT | 9120 |
| SEQ ID NO 248 (designed binder) MGSLPAPKNLVVSRVTEDSARLSWTAPDAAFDSFAIPYAEPSPTGEAIVLTVPGSERSYDLTGLKPGTEYPVWIQGVKGGSPSAPLSAEFTT | 15100 |
| SEQ ID NO 256 (designed binder) MLPAPKNLVVSRVTEDSARLSWTAPDAAFDSFHIVYHEPRPSGEAIVLTVPGSERSYDLTGLKPGTEYEVGIVGVKGGDLSVPLSAIFTT | 2200 |
| SEQ ID NO 257 (designed binder) MLPAPKNLVVSRVTEDSARLSWTAPDAAFDSFHIVYHEPRPSGEAIVLTVPGSERSYDLTGLKPGTEYEVGIVSVKGGDLSVPLSAIFTT | 3950 |
| SEQ ID NO 246 (designed binder) MLPAPKNLVVSRVTEDSARLSWTAPDAAFDSFTIAYNEQNHYGEAIVLTVPGSERSYDLTGLKPGTEYGVWIEGVKGGTLSWPLSAIFTT | 1400 |
| SEQ ID NO 253 (designed binder) MLPAPKNLVVSRVTEDSARLSWTAPDAAFDSFTIEYWETIGGGEAIVLTVPGSERSYDLTGLKPGTEYYVGIYGVKGGWWSRPLSAIFTT | 2450 |
| SEQ ID NO 247 (designed binder) MLPAPKNLVVSRVTEDSARLSWTAPDAAFDSFYIEWTYKGEAIVLTVPGSERSYDLTGLKPGTEYFVGIPGVKGGKSSYPLSAIFTT | 53000 |
| SEQ ID NO 250 (designed binder) MLPAPKNLVVSRVTEDSARLSWTAPDAAFDSFFIGYLEPYPPGEAIVLTVPGSERSYDLTGLKPGTEYAVEIAGVKGGLLSSPLSAISTT | 18800 |
| SEQ ID NO 254 (designed binder) MLPAPKNLVVSRVTEDSARLSWTAPDAAFDSFFIPYAEPSPTGEAIVLTVPGSERSYDLTGLKPGTEYSVLIHGVKGGHLSDPLSAISTT | 90000 |
| SEQ ID NO 251 (designed binder) MLPAPKNLVVSRVTEDSARLSWTAPDAAFDSFFIGYLEPQPPGEAIVLTVPGSERSYDLTGLKPGTEYNVTIQGVKGGFPSMPLSAIVTT | 9650 |

Now from value to binder:

| HSA | Binder |
| --- | --- |
| 4150 | SEQ ID NO 269 (designed binder) MLPAPKNLVVSRVTEDSARLSWTAPDAAFDSFHINYAEVYTKGEAILLTVPGSERSYDLTGLKPGTEYEVYIPGVKGGPFSRPLNAQFTT |
| 2550 | SEQ ID NO 264 (designed binder) MLPAPKNLVVSRVTEDSARLSWTAPDAAFDSFRIKYQEWWVEGEAIVLTVPGSERSYDLTGLKPGTEYVVQIAGVKGGLSSYPLSAIFTT |
| 3950 | SEQ ID NO 265 (designed binder) MLPAPKNLVVSRVTEDSARLSWTAPDAAFDSFWIYYIETSHQGEAIVLTVPGSERSYDLTGLKPGTEYFVLIKGVKGGYDSVPLSAIFTT |
| 11900 | SEQ ID NO 274 (designed binder) MLPAPKNLVVSRVTEDSVRLSWTAPDAAFDSFAISYEEWWVHGEAIVLTVPGSERSYDLTGLKPGTEYSVVIPGVKGGLYSWTLSAISTT |
| 2650 | SEQ ID NO 266 (designed binder) MLPAPKNLVVSRVTEDSARLSWTAPDAAFDSFMIRYQEGTRWGEAIVLTVPGSERSYDLTGLKPGTEYIVMIAGVKGGQISLPLSAIFTT |
| 3050 | SEQ ID NO 271 (designed binder) MLPAPKNLVVSRVTEDSARLSWTAPDAAFDSFYIPYAETRDDGEAIVLTVPGSERSYDLTGLKPGTEYSVLIHGVKGGDLSSPLSAIFTT |
| 2550 | SEQ ID NO 268 (designed binder) MLPAPKNLVVSRVTEDSARLSWTAPDAAFDSFTIVYGEAGAFGEAIVLTVPGSERSYDLTGLKPGTEYDVLIEGVKGGNLSWPLSAIFTT |
| 5550 | SEQ ID NO 261 (designed binder) MLPAPKNLVVSRVTEDSARLSWTAPDAAFDSFTIVYGEWGVPGEAIVLTVPGSERSYDLTGLKPGTEYDVWIEGVKGGDLSWPLSAIVTT |
| 11900 | SEQ ID NO 267 (designed binder) MLPAPKNLVVSRVTEDSARLSWTAPDAAFDSFPIVYSEIHVIGEAIVLTVPGSERSYDLTGLKPGTEYDVWIEGVKGGHLSEPLSAIFTT |
| 10600 | SEQ ID NO 258 (designed binder) MLPAPKNLVVSRVTEDSARLSWTAPDAAFDSFFIPYAEPSPTGEAIVLTVPGSERSYDLTGLKPGTEYDVWIEGVKGGVLSWPLSAIFTT |
| 2100 | SEQ ID NO 259 (designed binder) MLPAPKNLVVSRVTEDSARLSWTAPDAAFDSFTIEYFEFVDAGEAIVLTVPGSERSYDLTGLKPGTEYWVEIWGVKGGSWSKPLSAIFTT |
| 2350 | SEQ ID NO 262 (designed binder) MLPAPKNLVVSRVTEDSARLSWTAPDAAFDSFAIEYFEYTGEGEAIVLTVPGSERSYDLTGLKPGTEYYVGIYGVKGGYLSRPLSAIFTT |
| 14400 | SEQ ID NO 260 (designed binder) MLPAPKNLVVSRVTEDSARLSWTAPDAAFDSFNISYYEYFVHGEAIVLTVPGSERSYDLTGLKPGTEYYVIDGVKGGDPSEPLSAIFTT |
| 8950 | SEQ ID NO 272 (designed binder) MLPAPKNLVVSRVTEDSARLSWTAPDAAFDSFGIPYAESTPTGEAIVLTVPGSERSYDLTGLKPGTEYSVLIHGVKGGHLSDPLSAIFTT |
| 20400 | SEQ ID NO 263 (designed binder) MLPAPKNLVVSRVTEDSARLSWTAPDAAFDSFFIGYLEPQPPGEAIVLTVPGSERSYDLTGLKPGTEYNVTIQGVKGGFPSMPLSAISTT |
